In article PMC9458440, “Cryo-EM structure of the Smc5/6 holo-complex” (Nucleic Acids Research, 2022):

T1: Smc5 (Walker B mutant E1015Q), subunit of the S. cerevisiae Smc5/6 holo-complex (S. cerevisiae, UniProt Q08204 1-1093, E1015Q)
T1 construct: Smc5, Saccharomyces cerevisiae; the model holds amino acids 35-390, 394-882, 884-1068; The complex was crosslinked with BS3; also called κ-SMC; source: recombinant, expressed in insect cells, purified as holo-complex (Superose 6 SEC), BS3-crosslinked
T1 sequence: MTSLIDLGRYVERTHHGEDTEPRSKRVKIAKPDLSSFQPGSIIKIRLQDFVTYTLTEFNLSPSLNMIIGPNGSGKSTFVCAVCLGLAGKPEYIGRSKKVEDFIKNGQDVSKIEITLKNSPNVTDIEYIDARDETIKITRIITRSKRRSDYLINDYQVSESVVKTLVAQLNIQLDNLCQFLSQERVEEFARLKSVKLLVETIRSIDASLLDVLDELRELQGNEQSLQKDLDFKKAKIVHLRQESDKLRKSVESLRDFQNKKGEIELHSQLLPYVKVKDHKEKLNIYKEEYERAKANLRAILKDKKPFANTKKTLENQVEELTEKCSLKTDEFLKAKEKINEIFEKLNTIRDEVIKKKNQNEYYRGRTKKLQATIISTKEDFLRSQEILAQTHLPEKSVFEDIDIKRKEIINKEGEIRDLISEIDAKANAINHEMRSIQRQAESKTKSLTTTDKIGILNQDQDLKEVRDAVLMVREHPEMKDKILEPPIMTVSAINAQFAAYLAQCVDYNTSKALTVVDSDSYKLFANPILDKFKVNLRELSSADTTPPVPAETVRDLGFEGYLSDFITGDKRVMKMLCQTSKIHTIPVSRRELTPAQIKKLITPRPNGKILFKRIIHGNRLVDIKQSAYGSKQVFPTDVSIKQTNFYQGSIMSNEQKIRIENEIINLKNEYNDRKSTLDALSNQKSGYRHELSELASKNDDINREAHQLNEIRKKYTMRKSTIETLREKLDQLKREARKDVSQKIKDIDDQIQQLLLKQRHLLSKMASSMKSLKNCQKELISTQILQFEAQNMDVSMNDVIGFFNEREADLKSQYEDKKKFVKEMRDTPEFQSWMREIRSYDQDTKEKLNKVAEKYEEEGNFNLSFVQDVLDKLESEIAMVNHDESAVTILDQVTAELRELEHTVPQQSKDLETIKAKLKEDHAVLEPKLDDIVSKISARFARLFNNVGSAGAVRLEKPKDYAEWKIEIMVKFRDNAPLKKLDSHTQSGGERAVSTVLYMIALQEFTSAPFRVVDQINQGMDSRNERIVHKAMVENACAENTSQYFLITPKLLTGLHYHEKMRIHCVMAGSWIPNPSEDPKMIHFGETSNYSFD

T2: Smc6 (Walker B mutant E1048Q), subunit of the S. cerevisiae Smc5/6 holo-complex (S. cerevisiae, UniProt Q12749 1-1114, E1048Q)
T2 construct: Smc6, Saccharomyces cerevisiae; the model holds amino acids 74-213, 215-290, 292-370, 387-431, 436-805, 814-919, 922-1104; The complex was crosslinked with BS3; also called ν-SMC; source: recombinant, expressed in insect cells, purified as holo-complex (Superose 6 SEC), BS3-crosslinked
T2 sequence: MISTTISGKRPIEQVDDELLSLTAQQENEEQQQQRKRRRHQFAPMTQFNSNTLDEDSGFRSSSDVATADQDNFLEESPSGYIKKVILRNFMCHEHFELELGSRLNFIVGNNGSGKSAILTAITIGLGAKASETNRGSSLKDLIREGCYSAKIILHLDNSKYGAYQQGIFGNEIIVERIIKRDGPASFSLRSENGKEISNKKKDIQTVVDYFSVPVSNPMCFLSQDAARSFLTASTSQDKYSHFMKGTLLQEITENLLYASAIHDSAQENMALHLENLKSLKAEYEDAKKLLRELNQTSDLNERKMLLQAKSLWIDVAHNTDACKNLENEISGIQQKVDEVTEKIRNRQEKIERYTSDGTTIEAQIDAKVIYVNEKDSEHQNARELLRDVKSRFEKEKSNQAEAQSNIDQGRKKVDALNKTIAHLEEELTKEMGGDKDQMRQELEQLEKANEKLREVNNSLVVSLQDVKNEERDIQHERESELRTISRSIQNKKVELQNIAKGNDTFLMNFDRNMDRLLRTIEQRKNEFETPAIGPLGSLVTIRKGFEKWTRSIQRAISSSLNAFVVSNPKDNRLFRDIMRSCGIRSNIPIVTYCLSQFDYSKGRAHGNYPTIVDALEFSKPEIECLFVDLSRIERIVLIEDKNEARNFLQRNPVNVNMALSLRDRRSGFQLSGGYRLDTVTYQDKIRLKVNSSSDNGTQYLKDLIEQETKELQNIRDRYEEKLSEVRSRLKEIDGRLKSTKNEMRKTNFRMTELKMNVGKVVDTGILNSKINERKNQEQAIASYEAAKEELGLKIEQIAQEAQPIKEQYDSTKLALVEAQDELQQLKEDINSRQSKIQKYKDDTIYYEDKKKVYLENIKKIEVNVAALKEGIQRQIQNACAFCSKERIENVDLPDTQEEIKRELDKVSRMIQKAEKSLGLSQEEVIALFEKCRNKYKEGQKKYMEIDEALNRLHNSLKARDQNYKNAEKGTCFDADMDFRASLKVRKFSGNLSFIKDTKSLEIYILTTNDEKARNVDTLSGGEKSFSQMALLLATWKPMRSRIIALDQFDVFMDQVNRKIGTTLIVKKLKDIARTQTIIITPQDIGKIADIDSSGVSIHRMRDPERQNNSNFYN

B1: Nse4 with HaloTag, kleisin subunit of the S. cerevisiae Smc5/6 holo-complex (natural protein)
chain: MSSTVISRKRRNSTVTEPDSSGETRKQKKSRSDEKSSSSKDGDPQLEFKVLQGYRDLESEMHKGRAQVTRTGDIGVAMDNLNAVDSLFNKVIGIKNNGLFAHDARAMVSISELAQISVRNLKFDDSRSMVNLENIVNSLKRYMLKEHFKLNNIAENRNDLTLAADEQSAADQQEESDGDIDRTPDDNHTDKATSSFKATSMRHSYLQQFSHYNEFSQFNWFRIGALYNTISKNAPITDHLMGPLSIEKKPRVLTQRRRNNDQVGEKITAEKITQHSLNSTQQETTPEQVKKCFKKLSKKLGPEGSINLFKFIIDPNSFSRSIENLFYTSFLIKEGKLLMEHDEEGLPTIKIKQSISHTDSRSKEIERQRRRAAHQNHIIFQMDMPTWRKLIKKYNITSPFLD
notes: Nse4, Saccharomyces cerevisiae; the model holds amino acids 40-124, 184-202, 213-245, 283-402; Density of the HaloTag attached to Nse4 was removed by particle subtraction, so the tag was on the protein on the grid; its end is told only for the yeast strain (C-terminal), not for the recombinant protein; source: recombinant, expressed in insect cells, purified as holo-complex (Superose 6 SEC), …
B2: Nse1, subunit of the S. cerevisiae Smc5/6 holo-complex (natural protein)
chain: MEVHEEQVSAPVTGDATAKYLLQYILSARGICHENALILALMRLETDASTLNTEWSIQQWVDKLNDYINAINVKLNLLGYKIIRINHGIGRNAVTLKAKQNFESFEDNTAIRAHNNDYAVLQSIVLPESNRFFVYVNLASTEETKLATRFNQNEIEFMKWAIEQFMISGETIVEGPALETSIIVKEVNRILVAATGDSNLAKWRKFSTFTVGSTNLFQFQELTATDIEDLLLRLCELKWFYRTQEGKFGIDLRCIAELEEYLTSMYNLNTCQNCHKLAIQGVRCGNESCREENEETGENSLSQIWHVDCFKHYITHVSKNCDRCGSSLITEGVYVI
notes: Nse1, Saccharomyces cerevisiae; the model holds amino acids 11-336; also called KITE subunit; source: recombinant, expressed in insect cells, purified as holo-complex (Superose 6 SEC), BS3-crosslinked

How the values were obtained:
Assay in all cases: cryo-EM structure; BS3-crosslinked six-subunit holo-complex, apo / non-liganded; fractions from Superose 6 diluted to 20 mM HEPES.NaOH pH 7.5, 50 mM NaCl, 0.5 mM TCEP, 0.1 mg/ml; maps at 10.8 Å (holo-complex), 8.53 Å (hinge/arm) and 6.5 Å (head-only); pseudo-atomic model built from homology and AlphaFold models
Settings in all cases: both partners purified
[1] = target: T1, Smc5 (Walker B mutant E1015Q), subunit …
[2] = target: T2, Smc6 (Walker B mutant E1048Q), subunit …
[3] = target: B1
[4] = target: B2

binding result [1] | binding result [2] | binding result [3] | binding result [4] | Binder
binds | binds | – | – | B1
binds | – | binds | – | B2
binds | binds | – | – | Nse2 (Mms21), subunit of the S. cerevisiae Smc5/6 holo-complex (natural protein, Nse2 (Mms21), Saccharomyces cerevisiae; the model holds amino acids 1-267; source: recombinant, expressed in insect cells, purified as holo-complex (Superose 6 SEC), BS3-crosslinked) MALNDNPIPKSVPLHPKSGKYFHNLHARDLSNIYQQCYKQIDETINQLVDSTSPSTIGIEEQVADITSTYKLLSTYESESNSFDEHIKDLKKNFKQSSDACPQIDLSTWDKYRTGELTAPKLSELYLNMPTPEPATMVNNTDTLKILKVLPYIWNDPTCVIPDLQNPADEDDLQIEGGKIELTCPITCKPYEAPLISRKCNHVFDRDGIQNYLQGYTTRDCPQAACSQVVSMRDFVRDPIMELRCKIAKMKESQEQDKRSSQAIDVL
binds | – | binds | binds | Nse3, subunit of the S. cerevisiae Smc5/6 holo-complex (natural protein, Nse3, Saccharomyces cerevisiae; the model holds amino acids 9-99, 114-152, 173-303; also called KITE subunit; source: recombinant, expressed in insect cells, purified as holo-complex (Superose 6 SEC), BS3-crosslinked) MSSIDNDSDVDLTEDLAVAKIVKENPVARKMVRYILSRGESQNSIITRNKLQSVIHEAAREENIAKPSFSKMFMDINAILYNVYGFELQGLPSKNNMNAGGNGSNSNTNKSMPEPLGHRAQKFILLNNVPHSKNFDDFKILQSAHTYEELIVTGEYIGDDIASGTSNTLESKLSTDRDLVYKGVLSVILCIVFFSKNNILHQELIKFLETFGIPSDGSKIAILNITIEDLIKSLEKREYIVRLEEKSDTDGEVISYRIGRRTQAELGLESLEKLVQEIMGLEKEQTKSLHDDIIKSIGDSYSI
